Source: paper PMC5858577

Molecular target: VEGF (human recombinant VEGF165 in the cell experiments) (human, UniProt P15692-4 27-191)
Experiment: fluorescence recovery by displacement from gold nanorod

B1: gapmer aptamer probe (XNA)
DNA: CAATTGGGCCCGTCCGTATGGTGGGT
modifications: LNA monomers at both ends, DNA in the middle; exact positions only in Fig. 1b/Supplementary Table 1
- binding result: binds
